T1: GFP-9S library array, motif 4 ND N98C (synthetic construct, N98C)
T1 chain: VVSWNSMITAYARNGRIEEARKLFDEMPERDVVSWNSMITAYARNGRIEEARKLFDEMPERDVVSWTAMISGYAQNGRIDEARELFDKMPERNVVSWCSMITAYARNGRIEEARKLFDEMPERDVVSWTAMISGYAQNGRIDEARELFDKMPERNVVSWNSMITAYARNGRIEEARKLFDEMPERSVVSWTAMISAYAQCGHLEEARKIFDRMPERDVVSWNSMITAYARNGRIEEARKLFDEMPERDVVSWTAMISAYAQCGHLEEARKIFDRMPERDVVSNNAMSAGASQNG

T2: GFP-9S library array, motif 4 ND N98W;D124C (synthetic construct, N98W;D124C)
T2 chain: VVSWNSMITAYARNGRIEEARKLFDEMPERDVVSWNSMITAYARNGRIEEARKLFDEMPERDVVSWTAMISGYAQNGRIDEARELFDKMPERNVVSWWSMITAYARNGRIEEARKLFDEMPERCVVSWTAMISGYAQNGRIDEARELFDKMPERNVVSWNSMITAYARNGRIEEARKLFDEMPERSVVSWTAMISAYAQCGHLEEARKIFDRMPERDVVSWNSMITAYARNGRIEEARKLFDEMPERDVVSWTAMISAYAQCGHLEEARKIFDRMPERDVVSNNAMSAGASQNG

T3: GFP-9S library array, motif 4 ND N98E;D124K (synthetic construct, N98E;D124K)
T3 chain: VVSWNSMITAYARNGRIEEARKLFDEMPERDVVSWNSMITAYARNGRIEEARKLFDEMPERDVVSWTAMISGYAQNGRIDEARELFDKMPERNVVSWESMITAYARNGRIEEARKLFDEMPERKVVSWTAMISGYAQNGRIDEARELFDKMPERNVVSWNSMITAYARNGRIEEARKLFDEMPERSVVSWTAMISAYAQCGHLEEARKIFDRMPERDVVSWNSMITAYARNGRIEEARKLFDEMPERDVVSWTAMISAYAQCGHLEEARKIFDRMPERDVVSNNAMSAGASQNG

T4: GFP-9S library array, motif 4 ND N98V;D124L (synthetic construct, N98V;D124L)
T4 chain: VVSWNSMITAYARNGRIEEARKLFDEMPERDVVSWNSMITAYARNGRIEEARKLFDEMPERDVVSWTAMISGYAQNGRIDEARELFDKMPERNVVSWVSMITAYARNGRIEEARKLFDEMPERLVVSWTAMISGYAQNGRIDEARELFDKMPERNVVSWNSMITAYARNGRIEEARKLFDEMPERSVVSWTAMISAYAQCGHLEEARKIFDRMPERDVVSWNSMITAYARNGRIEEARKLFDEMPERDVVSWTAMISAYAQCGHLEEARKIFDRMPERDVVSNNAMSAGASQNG

T5: GFP-9S library array, motif 4 ND N98E;D124W (synthetic construct, N98E;D124W)
T5 chain: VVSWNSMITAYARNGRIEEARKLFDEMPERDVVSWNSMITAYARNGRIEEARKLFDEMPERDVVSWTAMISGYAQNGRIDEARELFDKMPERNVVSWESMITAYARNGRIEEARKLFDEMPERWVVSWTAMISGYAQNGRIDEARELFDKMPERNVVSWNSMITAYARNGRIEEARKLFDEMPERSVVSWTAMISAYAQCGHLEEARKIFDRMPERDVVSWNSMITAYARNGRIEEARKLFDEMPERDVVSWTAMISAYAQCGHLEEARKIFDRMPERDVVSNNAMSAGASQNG


Tests used:
Test in all cases: high-throughput RNA pulldown from lysate on Ni-NTA beads; HRP: 50 mM Tris pH 8, 150 mM NaCl, 1 mM beta-mercaptoethanol, 50 ug/ml BSA, 3 ug/ml yeast RNA, 0.5% heparin; ITC and FP: Tris pH 8, 200 mM KCl, 5% glycerol; MST: 50 mM Tris pH 8, 200 mM NaCl, 1 mM DTT, BSA, heparin, 0.05% Tween 20
Details in all cases: tags: N-terminal His-eGFP
[1] = biological target: T1, GFP-9S library array, motif 4 ND N98C
[2] = biological target: T2, GFP-9S library array, motif 4 ND …
[3] = biological target: T3, GFP-9S library array, motif 4 ND …
[4] = biological target: T4, GFP-9S library array, motif 4 ND …
[5] = biological target: T5, GFP-9S library array, motif 4 ND …

Binder | Kd ([1]; label: 5' IRDye 800CW) | Kd ([2]; label: 5' IRDye 800CW) | Kd ([3]; label: 5' IRDye 800CW) | Kd ([4]; label: 5' IRDye 800CW) | Kd ([5]; label: 5' IRDye 800CW) | Kd ([1]; label: 5' Cy5) | Kd ([2]; label: 5' Cy5) | Kd ([3]; label: 5' Cy5) | Kd ([4]; label: 5' Cy5) | Kd ([5]; label: 5' Cy5)
AUUAUACGUGA (ssRNA) [IR-rpoA-U] | 651 nM | 199 nM | 267 nM | 126 nM | 648 nM | – | – | – | – | –
AUUAAACGUGA (ssRNA) [IR-rpoA-A] | 1290 nM | 181 nM | 312 nM | 199 nM | 630 nM | – | – | – | – | –
AUUAGACGUGA (ssRNA) [Cy5-rpoA-G] | – | – | – | – | – | 620 nM | 77.6 nM | 155 nM | 112 nM | 198 nM
AUUACACGUGA (ssRNA) [Cy5-rpoA] | – | – | – | – | – | 491 nM | 79.4 nM | 124 nM | 88.5 nM | 213 nM
